Results: US12708119B2, “Methods of reducing or preventing clostridioides difficile colonization” (priority 2020, dated 2026)
“Also recorded” adds a separate entry of the source.

How the values were obtained:
[1] = test system: Clostridioides difficile R20291 spores; assay: Sporicidal enhancement of CotE_H2 and CDec_D1 aptamers in combination with Clinell sporicidal solution: growth / MSC (Examples 4 and 6); format: cell-based; settings: for effect of the addition of aptamer on the sporicidal capabilities of Clinell sporicidal solution / growth of spores in the presence of aptamer alone: R20291 spores
Experimental: (§1) Prior to testing, CotE_H2 aptamers were diluted in nuclease free water to a concentration of 80 μM. The aptamers were folded by heating to 95° C. in a digital dry bath for 5 minutes and then immediately placed on ice and cooled to 2° C. The aptamers were stored at 2-4° C. while in use. A Clostridioides difficile SH11 bacterial spore inoculum was prepared to 1×10^7±5×10^6 CFUmL^−1 according to internal procedures. The inoculum was confirmed by serial dilution and plating out the resultant suspensions onto brain heart infusion agar supplemented with horse blood and yeast (BHI-YHT). CotE_H2 aptamers were further diluted in “TbKst” buffer to obtain 2× in-test concentrations (40, 20, 10 and 5 μM). Ten microlitres of C. difficile spores were added to 10 μL of each 2× in-test concentration of CotE_H2 aptamer. The spore suspension was pipette mixed and incubated with CotE_H2 aptamer at room temperature for one hour. The spores were then washed three times by centrifuging at 13,400 RPM for 10 minutes. In each wash the supernatant was removed, and the pellet was resuspended in 100 μL of “TbKst” buffer. Following the third wash, the spores were resuspended in 100 μL of “TbKst” buffer and vortexed to obtain a homogenous solution.
(§2) A total of six 2× in-test concentrations (1:2 dilutions) of the sporicidal test agent were prepared from the stock (100%, 50%, 25%, 12.5%, 6.25%, 3.125%). Negative and positive control solutions were also prepared. Ten microliter aliquots of each sporicidal test agent concentration or control solution were added to the wells of a 96-well plate. A 10 μL aliquot of the aptamer-spore suspension was added to each test agent or control solution and pipette mixed. The final in-test concentrations of the sporicidal test agent were 50%, 25%, 12.5%, 6.25%, 3.125%, 1.5625%. The plates were then incubated for 15 minutes at 37° C.±2° C. in an anaerobic environment. Following incubation, 50 μL of GH neutraliser was added to each well and pipette mixed. A 10 μL aliquot of neutralised suspension was taken from each well and transferred to an agar plate and incubated for 48 hours at 37° C.±2° C. in an anaerobic environment. Growth was recorded as “+” and no growth as “−”. The minimum sporicidal concentration (MSC) for each spore and aptamer concentration was identified as the lowest concentration with no growth for all replicates. […] The test was repeated without the presence of the aptamers and without the presence of the Clinell® sporicidal solution. Testing was also repeated using C. difficile ATCCR 43598™ and C. difficile R20291 spores. Testing was performed in triplicate. The method was repeated with CDec_D1 aptamers for all three strains of C. difficile spores.

[2] = test system: Clostridioides difficile ATCC® 43598™ spores; assay: as above; format: cell-based
Experimental: as §1, §2

[3] = test system: Clostridioides difficile SH11 spores; assay: as above; format: cell-based; settings: for effect of the addition of aptamer on the sporicidal capabilities of Clinell sporicidal solution / growth of spores in the presence of aptamer alone: SH11 spores
Experimental: as §1, §2

C. difficile SH11 spores = assay: Sporicidal enhancement of CDiff_F1 aptamer in combination with Clinell sporicidal solution: growth / MSC (Example 3); format: cell-based, Clostridioides difficile; set-up: key to Growth observed after recovering viable spores: Growth was recorded as “+”; no growth as “−”; settings: for Growth observed after recovering viable spores: aptamers only, treatment 15 minutes
Experimental: (§3) Prior to testing, the CDiff_F1 aptamers were diluted in nuclease free water to a concentration of 80 μM. The aptamers were folded by heating to 95° C. in a digital dry bath for 5 minutes and then immediately placed on ice and cooled to 2° C. The aptamers were stored at 2-4° C. while in use. A C. difficile SH11 bacterial spore inoculum was prepared to 1×108±5×10^7 CFUmL−1 according to internal procedures. The inoculum was confirmed by serial dilution and plating out the resultant suspensions onto brain heart infusion agar supplemented with horse blood and yeast (BHI-YHT). The CDiff_F1 aptamers were further diluted in “BB+Mg2+” buffer to obtain two times in-test concentrations ([…]). Ten microlitres of C. difficile spores were added to 10 μL of each two times in-test concentration of CDiff_F1 aptamer. The spore suspension was pipette mixed and incubated with CDiff_F1 aptamer at room temperature for one hour. The spores were then washed three times by centrifuging at 13,400 RPM for 10 minutes. In each wash the supernatant was removed, and the pellet was resuspended in 100 μL of “BB+Mg2+” buffer. Following the third wash, the spores were resuspended in 100 μL of “BB+Mg2+” buffer and vortexed to obtain a homogenous solution.
(§4) A total of six, two times in-test concentrations of each sporicidal test agent were prepared from the stock (100%, 50%, 25%, 12.5%, 6.25%, 3.125%). Negative and positive control solutions were also prepared. Ten microliter aliquots of each sporicidal test agent concentration or control solution were added to the wells of a 96-well plate. A 10 μL aliquot of the aptamer-spore suspension was added to each test agent or control solution and pipette mixed. The final in-test concentrations of each sporicidal test agent were 50%, 25%, 12.5%, 6.25%, 3.125%, 1.5625%. The plates were then incubated for 15 minutes at 37° C.±2° C. in an anaerobic environment. Following incubation, 50 μL of GH neutraliser was added to each well and pipette mixed. A 10 μL aliquot of neutralised suspension was taken from each well and transferred to an agar plate and incubated for 48 hours at 37° C.±2° C. in an anaerobic environment. Growth was recorded as “+” and no growth as “−”. The minimum sporicidal concentration (MSC) for each concentration was identified as the lowest concentration with no growth for all replicates. […] The test was repeated without the presence of the aptamers and without the presence of the Clinell® sporicidal solution. Testing was also repeated using C. difficile ATCC® 43598™ and C. difficile R20291 spores. Testing was performed in triplicate.

[4] = test system: C. difficile ATCC® 43598™ spores; assay: as above; format: cell-based, Clostridioides difficile; set-up: key to Growth observed after recovering viable C. difficile ATCC 43598 spores: Growth was recorded as “+”; no growth as “−”; settings: for Growth observed after recovering viable C. difficile ATCC 43598 spores: Aptamers only, treatment 15 minutes
Experimental: as §3, §4

[5] = test system: C. difficile R20291 spores; assay: as above; format: cell-based, Clostridioides difficile; set-up: key to Growth observed after recovering viable C. difficile R20291 spores: Growth was recorded as “+”; no growth as “−”; settings: for Growth observed after recovering viable C. difficile R20291 spores: Aptamers only, treatment 15 minutes
Experimental: as §3, §4

[6] = C. difficile R20291 spores, aptamer without Clinell sporicidal solution
[7] = any concentration of CotE_H2 aptamers without Clinell sporicidal solution
[8] = C. difficile ATCC ® 43598 ™ spores, aptamer without Clinell sporicidal solution
[9] = C. difficile SH11 spores, aptamer without Clinell sporicidal solution
[10] = any concentration of CDec_D1 aptamers without Clinell sporicidal solution

B1: CotE_H2: aptamer against CotE, SEQ ID NO: 11; Table 4 lists fragments SEQ ID NO: 26-30 under the same ID (nucleic acid)
DNA: CCAGTGTAGACTACTCAATGCGGCTGTGTGACTTGACCTTTGGAATGGGTGGGAGGGATGGGTACTATCCACAGGTCAACC
modifications: listed as DNA, chemistry not given here
[1]; [6]
  MSC of CotE_H2: >20 µM
[1]
  effect of the addition of aptamer on the sporicidal capabilities of Clinell sporicidal solution: enhanced
[1]; [7]
  growth of spores in the presence of aptamer alone: unaffected
[2]; ATCC 43598 spores, any concentration of CotE_H2 aptamers without Clinell sporicidal solution
  growth of spores in the presence of aptamer alone: unaffected
[2]; [8]
  MSC of CotE_H2: >20 µM
[3]; [9]
  MSC of CotE_H2: >20 µM
[3]
  effect of the addition of aptamer on the sporicidal capabilities of Clinell sporicidal solution: enhanced
[3]; [7]
  growth of spores in the presence of aptamer alone: unaffected

B2: CDec_D1: aptamer against CdeC, SEQ ID NO: 6; Table 4 lists fragments SEQ ID NO: 38, 39 under CdeC_D1 (nucleic acid)
DNA: CCAGTGTAGACTACTCAATGCCGTGGACTGGTCGGGTTTGGATTCGGCAGATGAATCAGTAGTACTATCCACAGGTCAACC
modifications: DNA, backbone and methylation of C not given here
[1]; [6]
  MSC of CDec_D1: >20 µM
[1]
  effect of the addition of aptamer on the sporicidal capabilities of Clinell sporicidal solution: enhanced
[1]; [10]
  growth of spores in the presence of aptamer alone: unaffected
[2]; ATCC 43598 spores
  effect of the addition of aptamer on the sporicidal capabilities of Clinell sporicidal solution: enhanced
[2]; ATCC 43598 spores, any concentration of CDec_D1 aptamers without Clinell sporicidal solution
  growth of spores in the presence of aptamer alone: unaffected
[2]; [8]
  MSC of CDec_D1: >20 µM
[3]; [9]
  MSC of CDec_D1: >20 µM
[3]
  effect of the addition of aptamer on the sporicidal capabilities of Clinell sporicidal solution: enhanced
[3]; [10]
  growth of spores in the presence of aptamer alone: unaffected

B3: CDiff_F1: aptamer against C.diff spores, SEQ ID NO: 1; Table 4 lists fragments SEQ ID NO: 24, 44, 45 under the same ID (nucleic acid)
DNA: CCAGTGTAGACTACTCAATGCTCTTACGATCCTCACCTGCTAGCACACCCATATCCCATGCGTACTATCCACAGGTCAACC
modifications: listed as DNA, chemistry not given here
C. difficile SH11 spores; SH11 spores
  effect of the addition of aptamer on the sporicidal capabilities of Clinell sporicidal solution: enhanced
C. difficile SH11 spores; SH11 spores, any concentration of CDiff_F1 aptamers without Clinell sporicidal solution
  growth of spores in the presence of aptamer alone: unaffected; also recorded: did not affect
C. difficile SH11 spores; SH11 spores, aptamer without Clinell sporicidal solution
  MSC of CDiff_F1: >20 µM
C. difficile SH11 spores; CDiff_F1 2.5 μM, SH11 spores
  Growth observed after recovering viable spores: +
C. difficile SH11 spores; CDiff_F1 5 μM, SH11 spores
  Growth observed after recovering viable spores: +
C. difficile SH11 spores; CDiff_F1 10 μM, SH11 spores
  Growth observed after recovering viable spores: +
C. difficile SH11 spores; CDiff_F1 20 μM, SH11 spores
  Growth observed after recovering viable spores: +
C. difficile SH11 spores; spores of the SH11 strain, 20 μM of the aptamer
  fold reduction in the concentration of peracetic acid required for sporicidal activity: up to 4 fold
[4]; ATCC 43598 spores
  effect of the addition of aptamer on the sporicidal capabilities of Clinell sporicidal solution: enhanced
[4]; ATCC 43598 spores, any concentration of CDiff_F1 aptamers without Clinell sporicidal solution
  growth of spores in the presence of aptamer alone: unaffected; also recorded: did not affect
[4]; ATCC 43598 spores, aptamer without Clinell sporicidal solution
  MSC of CDiff_F1: >20 µM
[4]; CDiff_F1 aptamer 2.5 μM
  Growth observed after recovering viable C. difficile ATCC 43598 spores: +
[4]; CDiff_F1 aptamer 5 μM
  Growth observed after recovering viable C. difficile ATCC 43598 spores: +
[4]; CDiff_F1 aptamer 10 μM
  Growth observed after recovering viable C. difficile ATCC 43598 spores: +
[4]; CDiff_F1 aptamer 20 μM
  Growth observed after recovering viable C. difficile ATCC 43598 spores: +
[4]; spores of the ATCC 43598 strain, after 15 minutes
  fold reduction in the concentration of peracetic acid required for sporicidal activity: up to 2 fold
[5]; CDiff_F1 aptamer 2.5 μM
  Growth observed after recovering viable C. difficile R20291 spores: +
[5]; CDiff_F1 aptamer 5 μM
  Growth observed after recovering viable C. difficile R20291 spores: +
[5]; CDiff_F1 aptamer 10 μM
  Growth observed after recovering viable C. difficile R20291 spores: +
[5]; CDiff_F1 aptamer 20 μM
  Growth observed after recovering viable C. difficile R20291 spores: +
[5]; R20291 spores
  effect of the addition of aptamer on the sporicidal capabilities of Clinell sporicidal solution: enhanced
[5]; R20291 spores, aptamer without Clinell sporicidal solution
  MSC of CDiff_F1: >20 µM
[5]; R20291 spores, only CDiff_F1 aptamers
  growth of spores in the presence of aptamer alone: did not affect
